# Measurements as given in the DeepSol protein solubility set.
# Assay: soluble on expression in E. coli; label from the status in PepcDB or PDB records
row,Sequence,soluble on expression in E. coli
1,MAGWVNPSFDREKLRSVIDSAERVLSERDKAREEAIRLARDVVRYSGWAVTAVHKGSLEEAEGHLARAEEAAGMLRSILEPYPDLMTAGFANNAFSEYVEARLFIDIITGRGLSSPDELRVPIVPYIQGLGDLVGELRRLSLELVRRGEFRKAWSLLDIMEAIYLELRSLDYPEALLPGVRHKADVARRLVDDTKAMLADLESRSQLEYRLKEVLKRLEA,soluble
2,MGCAVSQESAIATVSSSSNTATTSTSSSNTSQKWATSRTSRPVTNVTQVSAIHTTSMDSGSSTVQLPSPRGSLTTAVSTSSSGAQRQMSANSERSLHTRPLSETAVILQSQAVKMSTGAGDSAVYEAVERGSLYSLDYRVYIKGPQGIVSPWHDIPLFANKDKRVYNMIVEIPRWTNAKMEMATKEPFSPIKQDEKKGVARFVHNIFPHKGYIWNYGALPQTWEDPNHVVPDTGAKGDNDPIDVIEVGSKVAGRGAVLQVKVLGTLALIDEGETDWKLVAIDVNDENADKLNDIDDVEKVYPGLLAASVEWFRNYKIPAGKPANEFAFNGEFKNREYAEKVIDETNEYWKTLIKEANPSLNTVSRVPEAVHQGTDEAAATAIGATPEHGANAPLPGDVDKWHFVQG,not soluble
3,MNALSGLQTHEDSTCCNRFCRPDERSASGNSTLLRFGGFFADQTYLQVTRLMQRIHYLHQRLVIDGFVRSEEDGGVFLAFGLEHHHHHH,not soluble
4,MAFRLAVDCLGFENHPREAIDAVLEYWSYHQELEFILVGDEKTFDGLDYLPKNITKQLASSCIDMTDTPLTARRKVNNSMQKAINLVRDGAADVVISAGSSAVYASLTYDGFGKIHKDVKSAFMSYVPTANNDWFYFLDVGANKNFTGKELYFLGLMADIFVKKTTNKISPRIALLNIGTEIHKGFDYHQEGYQLLNEDKHLNFTGFIEPRFLLDGVCDILVADGYSGNLVLKSMEGTFKTIARLLKQGYKRNPLAGLFSLGILKRIAKRFDYKNNAGAVVIGLNKLALKTHGSADKQQFLSTIRLAHTSLKSDLINAIKSSLDNYEK,soluble
5,MDIRLEDEQIKVGDTLLPGVYEGMEVTGDVRSDEEELQSGKRVVHYSYNPTTIRLNLKLLNDADGTPEEKLATIQKVFRPPSQTKPPTYKLVSSHAKARGIGQVMFIRFRSQDTNASDIITVSLEFQETESTTVSVQKVKANTGSGQQYTVKKGDTLWALAKKFNTTVEAIAKANNIANVNLIYVGQKLTIPAASGNASSVASSSAAVDDAEAPKVR,not soluble
6,MLELSESNIHLNANAIDKQQAIEMAVSALVQAGNVENGYLQGMLARELQTSTFLGNGIAIPHGTLDTRLMVKKTGVQVFQFPQGIEWGEGNIAYVVIGIAARSDEHLSLLRQLTHVLSDEDTAAKLAKITDVAEFCAILMGETIDPFEIPAANISLDVNTQSLLTLVAINAGQLQVQSAVENRFISEVINNAALPLGKGLWVTDSVVGNVKNALAFSRAKTIFSHNGKAVKGVITVSAVGDQINPTLVRLLDDDVQTTLLNGNSTEILTALLGSSSDVETQSVEGAVVGTFTIRNEHGLHARPSANLVNEVKKFTSKITMQNLTRESEVVSAKSLMKIVALGVTQGHRLRFVAEGEDAKQAIESLGKAIANGLGENVSAVPPSEPDTIEIMGDQIHTPAVTEDDNLPANAIEAVFVIKNEQGLHARPSAILVNEVKKYNASVAVQNLDRNSQLVSAKSLMKIVALGVVKGTRLRFVATGEEAQQAIDGIGAVIESGLGE,not soluble
7,MQLGETAEEACLRELYEETGLQLEIERLAFIHENFFTGQESDFLNKVNCHELSFYFLMKPLTENLSVKSESFGTDGSKEFLKWIPIAEYKNYKAFPTFFADELKNLSVNSQIKRIVTTELEHHHHHH,not soluble
8,MGSDKIHHHHHHMSLPLYQQISDDLKQKIVTKTFKSGDQLPTEKELSETYSVSRITAKRALTELEQLGLVSRTRGKGTFVQELNKNHTKLLKRVLFIIPFEGMSFGDFTQGLVPALKVENTTVFITYESYLKENTADDIKENFDGLIYYPMYTEDYLDILLELSLQNFPVVLLDKQIYDLGFPCVSSDNFNGGEQAAQALLNLGHKRIAFVASNDTHHPQTTRNRYLGYVKVLKEQGIKFHTTLDDSLYTESSVLELIHNEKVTGLICENDLVALQTMKTLQDSHFSVPNDISIIGFDDIQAASLSNPPLTTIAQDFIGMGRIAGELLLDWIKSGQTPKDVKVPINLIKRKTTEELK,not soluble
9,MSLATSYVGTVAGEKITTKEFKYFLGYVKIQMENDAQLQDQASKEAFWDSKIEGVDAKELAKQKALDSCKEFKIQLLKARERGLFLNDKDMQEIENSITTLLNQMAQFDQAAKNTGVEVMSAEEMLKDTYGVTIQEYKEILKDLRLVLKLVEDEQKNITITEEELRNRYNENKDVFDKITVRHIIFYTINPKTDVSLSEDAKKKAYENAKKALERANKGEDMEALALELSEDSGVEGNKGILEINSLKVNEPKLSNLVKWAYEHKVGDTDIVETGYGYHVVKIEKRTEYKDVVQNVKNVILSERYNQILGQWKQEPQYDLKKNEFALKRIKEGHHHHHH,soluble
10,MTAPISLRLVVEARDLPPMLPDVLRERFDRGETGVAWAPEHDASVGAPLGVLGGPEATAWPFAISEPPPVNVPALCAVGPCWWYPSFGAVIGNDGALYNATVGEARHGSADLSAIPGVASGGTRLVPPQDAPVLDGGAVFMPWGAGFNYGHFVIDALPSILALEQAGLLHDTPLLAPRLTDWQRELIAMATPGVRLQEVDAPAVRLGRAVFATSMDHFLHHPNGLLATLAERVTANAPKGAGARRVYLSRRGQSMRVMVGEAAFERALQARGFVIVRPETLGARAQVALMRDAEIIVGASGAALANAVFLPRGARVIEIQPTNFTSQWVRAACRQVGVEWRGYVCASPCPAHAAPLLARLRRGFKFAFRPDLDDLLSFVDAALLEHHHHHH,not soluble
11,MGSDKIHHHHHHMDDYGYRALPDALGTTYGSYLSAKSASGRYTVYVGANDGMLHAFDAGMTADGSMDASGGLERFAYIPATALGHMGNLLLPSDPTNRTTEYEHRYYVDGPVVVGDANYAGSWKTVVVGAAGAGGRSIFALDVTNPSNFSTSSKLWEISDLDSSLSTAIRNNIGHVLGKPVIVPVKNAAGAVTWKAIFGNGYNSRNGKAVLFVVDIKTGAPAVTMIEATETGSTIAGSNGLGNIVVVDRWGGASQTDGVRDGYADTVYGADQKGAIWKFDLRSSAASVTVPFFTTRTSVESGQTYRQPITGGLVATAGDAGGVMLFFGTGSFSFESDPKDEAIQSLYGVNDTVRGAPLTTATRANLRGSTVVQDGDRTLSRAAAPANSQGWYVDLPAKERMVGSPSIASGIVFIPTYTPAVVSSGCKPDGANWLFGLDTRTGDGALMDARKGSPTGASFASRTAATPLTTSGNAPVKDVGVSAIPRLSPAESGSAPGGQACWMVVTAAGSGPLYIPYPCGRQSWRQVQ,not soluble
12,MGSDKIHHHHHHMNQTTLNTIRNYVMQASAQWISDFNQGNVQTCINRYLPSATMQVHPFGKFTSIEAIADFWLEFAKSNPSDLVYRNIEIKVLNDRQAVLSANWRMNIASGFISKELWTLAEDGQWYLEEDDFTVLAQHTKPVDDKRTALVLVDLQNDYFSGGRFELDNTDSAAKQASQLLAHFRQKELPVIHMQHLFEETNAAFFSANTVGAEIESSVKPTANEPVIIKHQIDSFIETTLEQTLVELGIDNLVIVGAMAQACVQTLCRSAVNKGYKCQVISDAIAAPKLEYQQHSFTGGQLVAANLLSLSFGGADITDTKGWLQENK,not soluble
13,MGSGRTWRELKEVFPKLARAKYYTRARYGYCRGYEAVDFVESVRWYYYVLSGLVVLDRPEAKHLEHHHHHH,not soluble
14,VRPAIKVGLSTASVYPLRAEAAFEYADRLGYDGVELMVWGESVSQDIDAVRKLSRRYRVPVLSVHAPCLLISQRVWGANPILKLDRSVRAAEQLGAQTVVVHPPFRWQRRYAEGFSDQVAALEAASTVMVAVENMFPFRADRFFGAGQSRERMRKRGGGPGPAISAFAPSYDPLDGNHAHYTLDLSHTATAGTDSLDMARRMGPGLVHLHLCDGSGLPADEHLVPGRGTQPTAEVCQMLAGSGFVGHVVLEVSTSSARSANERESMLAESLQFARTHLLR,not soluble
15,MWKWETENDAKGVVVIAHNILEHTGRYAYVITMLRRNGYHVIMGDLPGQGQTSRAQKGQIDDFNTYHENILEWIKIANEYKIPTFVLGVGLGGLIILNLLEKTELPIEGILLFSPMLELKRDYKGRKNKLISNVGKISKDTRFKVGITPQDLTRNDEIIEETANDGLMLKKVTYSWYNLINEKMKETMDHIRDIKPISALIMYGTNDKILETQSINEMKDKLKSKEMYFKVWDGLYHEIHNEPERDLVMRYVLSFLNNSVNTMGFIVNEEEIEDI,not soluble
16,MASTPRIVIIGAGIVGTNLADELVTRGWNNITVLDQGPLNMPGGSTSHAPGLVFQTNPSKTMASFAKYTVEKLLSLTEDGVSCFNQVGGLEVATTETRLADLKRKLGYAAAWGIEGRLLSPAECQELYPLLDGENILGGLHVPSDGLASAARAVQLLIKRTESAGVTYRGSTTVTGIEQSGGRVTGVQTADGVIPADIVVSCAGFWGAKIGAMIGMAVPLLPLAHQYVKTTPVPAQQGRNDQPNGARLPILRHQDQDLYYREHGDRYGIGSYAHRPMPVDVDTLGAYAPETVSEHHMPSRLDFTLEDFLPAWEATKQLLPALADSEIEDGFNGIFSFTPDGGPLLGESKELDGFYVAEAVWVTHSAGVAKAMAELLTTGRSETDLGECDITRFEDVQLTPEYVSETSQQNFVEIYDVLHPLQPRLSPRNLRVSPFHARHKELGAFFLEAGGWERPYWFEANAALLKEMPAEWLPPARDAWSGMFSSPIAAAEAWKTRTAVAMYDMTPLKRLEVSGPGALKLLQELTTADLAKKPGAVTYTLLLDHAGGVRSDITVARLSEDTFQLGANGNIDTAYFERAARHQTQSGSATDWVQVRDTTGGTCCIGLWGPLARDLVSKVSDDDFTNDGLKYFRAKNVVIGGIPVTAMRLSYVGELGWELYTSADNGQRLWDALWQAGQPFGVIAAGRAAFSSLRLEKGYRSWGTDMTTEHDPFEAGLGFAVKMAKESFIGKGALEGRTEEASARRLRCLTIDDGRSIVLGKEPVFYKEQAVGYVTSAAYGYTVAKPIAYSYLPGTVSVGDSVDIEYFGRRITATVTEDPLYDPKMTRLRG,soluble
17,MSLLSRSVKRELVGKSAQMEQIRSHVAQYALLNRHVVIVGESGCGRHTIAYLIHQLTTNNGHLPWVELVASAKTEWSTVEPKVQESAGGTLLIDHIELLSEEVQRNVVQSLLNQERLNRPRTRVIAVIDQPPEQLIAQNQLLPELYYLLNQGQIDVPLLRQRPDDIAALFHYFLKQSCYKLGKPMPNVEPHYLALLRAHQWPGNVRELRNVAELYAIGIVKLAGKERLYNQEEMLSPLDELVDDYEKQVIEDALFLFSGRVADAANYLQVPRKKLYLRMKKHGLEKDAFKAREGHHHHHH,not soluble
18,MARKKQFDYFGELNQLATNAYEAAKVLQEIVDNYSLENLVKKSEAIHQLEKENDEIVRKILNELYISFITPIDREDIVDITDHLDNIIDSINSLSYLLDHLVVEEMIAPALELTAYIVKATEGVKSATKEFAKFKNSKTLVSLIDEVNTIESQGDKLYSSAMKDLMTNEKDLLKVIKWKDVYDQLERTINDCESAVNIIVGIVIKNTLEHHHHHH,soluble
19,MVGAYSYSEGLETLVENGTITSQSTLQQWLEAELSYGAIRLEAAVMVRAYQAATMDDMETLCYWNLWLSAARETQELRNSSWQMGRSLMQLLGKIQPEILPLANAVGNPCNYAIAFGIASAHWQINIQAALLAYLHSWATNLITAGVKLIPLGQTAGQELLLQLQPLISHATVEIMSLKDDELSCCSWGLSLASMQHETQYTRLFRSLEHHHHHH,not soluble
20,MKIAGLKQLNTALKEAASGGFSRQASRWLEECGQDFLEIVQSELISTQTIDTEKLLSSFEKGAEDNLWIVQSGGLSLEVGTQLDYASFLNDGHWTSKQDVRWVPGRFQGSRFIYDPAASTGMALKRKWIPGTGYWDHALLLYEQLFEKSLESKLRQWLKKL,not soluble
